This note sets out measurements from the Immune Epitope Database (IEDB).

A value given as a limit tells only on which side of the number the result lay.

One assay has as its target HLA-A*02:06. Nature of the assay: IEDB peptide-MHC binding, purified MHC/competitive/radioactivity; ≥ and ≤ were set here for values at or beyond the usual limits of such assays.
For another assay, the target named is HLA-A*02:02. Described as above.
For a further assay, the target named is HLA-A*02:03. The description is as above.
For another assay, the target named is HLA-A*02:01. The description is as above.
A further assay addresses HLA-A*68:02. Briefly: IEDB peptide-MHC binding, cellular MHC/competitive/fluorescence; ≥ and ≤ were set here for values at or beyond the usual limits of such assays.
The mark [1] stands for this setting: source organism: Vaccinia virus WR.
[2] abbreviates: source organism: Hepacivirus hominis.
The mark [3] stands for this setting: source organism: Mammarenavirus whitewaterense.
The mark [4] stands for this setting: source organism: Influenza A virus.

Turning to AVTLNRIKIA, the IC50 in the assay with HLA-A*02:06 (setting [1]) came to 2290 nM; in the assay with HLA-A*02:02 (setting [1]), 1720 nM; in the assay with HLA-A*02:03 (setting [1]), 1290 nM; with HLA-A*02:01 (setting [1]) it was 1250 nM; with HLA-A*68:02 (setting [1]), 11000 nM.

On to CLLTDTIESA, for which the IC50 with HLA-A*02:06 (setting [1]) is 92 nM; with HLA-A*02:02 (setting [1]), 53 nM; with HLA-A*02:03 (setting [1]), 102 nM; with HLA-A*02:01 (setting [1]), 188 nM; in the assay with HLA-A*68:02 (setting [1]) it was 22200 nM.

As to CLTVPNITI, the IC50 with HLA-A*02:06 (setting [1]) worked out at 1660 nM; with HLA-A*02:02 (setting [1]), 96 nM; with HLA-A*02:03 (setting [1]), 75 nM; with HLA-A*02:01 (setting [1]), 1190 nM; with HLA-A*68:02 (setting [1]), 8000 nM.

Regarding CLWWTCYMLV, the IC50 in the assay with HLA-A*02:06 (setting [2]) amounted to 2700 nM; with HLA-A*02:02 (setting [2]), 1870 nM; in the assay with HLA-A*02:03 (setting [2]), 891 nM; with HLA-A*02:01 (setting [2]), 271 nM; in the assay with HLA-A*68:02 (setting [2]), 10300 nM.

In the case of DLLFNEKLKV, the IC50 was 2020 nM with HLA-A*02:06 (setting [1]); 357 nM in the assay with HLA-A*02:02 (setting [1]); 317 nM in the assay with HLA-A*02:03 (setting [1]); 149 nM in the assay with HLA-A*02:01 (setting [1]); 9970 nM in the assay with HLA-A*68:02 (setting [1]).

For DMLKLFTHDI, the IC50 with HLA-A*02:06 (setting [1]) is 2970 nM; in the assay with HLA-A*02:02 (setting [1]), 196 nM; in the assay with HLA-A*02:03 (setting [1]), 16 nM; with HLA-A*02:01 (setting [1]), 1450 nM; in the assay with HLA-A*68:02 (setting [1]) it was 6410 nM.

As to DMLLNVQTLI, the IC50 with HLA-A*02:06 (setting [1]) amounted to 291 nM; with HLA-A*02:02 (setting [1]), 42 nM; with HLA-A*02:03 (setting [1]) it was 161 nM; with HLA-A*02:01 (setting [1]) it was 80 nM; in the assay with HLA-A*68:02 (setting [1]), 6690 nM.

Consider FLARKGIDT, for which the IC50 with HLA-A*02:06 (setting [1]) was 3040 nM; with HLA-A*02:02 (setting [1]), 1020 nM; with HLA-A*02:03 (setting [1]), 318 nM; with HLA-A*02:01 (setting [1]) it was 1420 nM; with HLA-A*68:02 (setting [1]), ≥ 70000 nM.

Take FLDWIKDIM: the IC50 came to 162 nM in the assay with HLA-A*02:06 (setting [1]); 0.78 nM in the assay with HLA-A*02:02 (setting [1]); 297 nM with HLA-A*02:03 (setting [1]); 19 nM in the assay with HLA-A*02:01 (setting [1]); 26800 nM in the assay with HLA-A*68:02 (setting [1]).

Consider FLFLAWIMLL, for which the IC50 with HLA-A*02:06 (source organism: SARS-CoV1) is 1010 nM; with HLA-A*02:02 (source organism: SARS-CoV1) it was 19 nM; in the assay with HLA-A*02:03 (source organism: SARS-CoV1), 56 nM; in the assay with HLA-A*02:01 (source organism: SARS-CoV1), 80 nM; in the assay with HLA-A*68:02 (source organism: SARS-CoV1) it was 6180 nM.

On to FLLALLSCI, for which the IC50 with HLA-A*02:06 (setting [2]) is 15 nM; in the assay with HLA-A*02:02 (setting [2]) it was 8.7 nM; with HLA-A*02:03 (setting [2]), 7.3 nM; with HLA-A*02:01 (setting [2]), 2.4 nM; with HLA-A*68:02 (setting [2]), ≥ 70000 nM.

In the case of FLLALLSCL, the IC50 was found to be 24 nM in the assay with HLA-A*02:06 (setting [2]); 2.6 nM in the assay with HLA-A*02:02 (setting [2]); 17 nM with HLA-A*02:03 (setting [2]); 2.8 nM with HLA-A*02:01 (setting [2]); 14000 nM with HLA-A*68:02 (setting [2]).

As to FLLALLSCLT, the IC50 was 592 nM with HLA-A*02:06 (setting [2]); 86 nM in the assay with HLA-A*02:02 (setting [2]); 154 nM with HLA-A*02:03 (setting [2]); 92 nM with HLA-A*02:01 (setting [2]); ≥ 70000 nM with HLA-A*68:02 (setting [2]).

On to FLLFLVLIML, for which the IC50 with HLA-A*02:06 (source organism: SARS-CoV1) was found to be 2920 nM; with HLA-A*02:02 (source organism: SARS-CoV1) it was 1570 nM; with HLA-A*02:03 (source organism: SARS-CoV1), 1380 nM; in the assay with HLA-A*02:01 (source organism: SARS-CoV1), 140 nM; with HLA-A*68:02 (source organism: SARS-CoV1) it was 5940 nM.

For FLLNKEMYL, the IC50 in the assay with HLA-A*02:06 (source organism: SARS-CoV1) is 1.6 nM; in the assay with HLA-A*02:02 (source organism: SARS-CoV1), 0.33 nM; in the assay with HLA-A*02:03 (source organism: SARS-CoV1), 1.1 nM; with HLA-A*02:01 (source organism: SARS-CoV1) it was 1.1 nM; with HLA-A*68:02 (source organism: SARS-CoV1), 12000 nM.

For the sequence FLLRGPFEAS, the IC50 with HLA-A*02:06 (setting [3]) turned out to be 70 nM; with HLA-A*02:02 (setting [3]) it was 27 nM; in the assay with HLA-A*02:03 (setting [3]), 84 nM; with HLA-A*02:01 (setting [3]), 109 nM; with HLA-A*68:02 (setting [3]) it was 38900 nM.

As to FLMSFTILCL, the IC50 came to 74 nM with HLA-A*02:06 (source organism: SARS-CoV1); 0.82 nM with HLA-A*02:02 (source organism: SARS-CoV1); 213 nM with HLA-A*02:03 (source organism: SARS-CoV1); 9.2 nM with HLA-A*02:01 (source organism: SARS-CoV1); 7570 nM with HLA-A*68:02 (source organism: SARS-CoV1).

Take FLPQIGGEAI: the IC50 was determined as 10 nM with HLA-A*02:06 (setting [1]); 1 nM with HLA-A*02:02 (setting [1]); 14 nM with HLA-A*02:03 (setting [1]); 158 nM with HLA-A*02:01 (setting [1]); 6540 nM with HLA-A*68:02 (setting [1]).

For FLQISRVNDL, the IC50 in the assay with HLA-A*02:06 (setting [1]) was found to be 582 nM; with HLA-A*02:02 (setting [1]) it was 5.2 nM; with HLA-A*02:03 (setting [1]), 67 nM; with HLA-A*02:01 (setting [1]) it was 13 nM; with HLA-A*68:02 (setting [1]) it was 7360 nM.

With FLTNKLLLFA, the IC50 with HLA-A*02:06 (source organism: SARS-CoV1) stood at 7.5 nM; in the assay with HLA-A*02:02 (source organism: SARS-CoV1), 0.42 nM; with HLA-A*02:03 (source organism: SARS-CoV1), 1.4 nM; in the assay with HLA-A*02:01 (source organism: SARS-CoV1), 6.2 nM; with HLA-A*68:02 (source organism: SARS-CoV1), 11700 nM.

Consider FLWLLWPVTL, for which the IC50 with HLA-A*02:06 (source organism: SARS-CoV1) came to 28 nM; in the assay with HLA-A*02:02 (source organism: SARS-CoV1), 2.7 nM; with HLA-A*02:03 (source organism: SARS-CoV1) it was 14 nM; in the assay with HLA-A*02:01 (source organism: SARS-CoV1) it was 0.98 nM; in the assay with HLA-A*68:02 (source organism: SARS-CoV1), 5220 nM.

Regarding FLYIIKLVFL, the IC50 with HLA-A*02:06 (source organism: SARS-CoV1) amounted to 865 nM; with HLA-A*02:02 (source organism: SARS-CoV1), 7.3 nM; in the assay with HLA-A*02:03 (source organism: SARS-CoV1), 22 nM; with HLA-A*02:01 (source organism: SARS-CoV1), 19 nM; in the assay with HLA-A*68:02 (source organism: SARS-CoV1), 26400 nM.

In the case of RLIDFLKDV, the IC50 in the assay with HLA-A*02:06 (setting [4]) was found to be 65 nM; with HLA-A*02:02 (setting [4]), 16 nM; with HLA-A*02:03 (setting [4]) it was 7.3 nM; with HLA-A*68:02 (setting [4]) it was 31500 nM.

Take VLPFDIKYI: the IC50 was 506 nM in the assay with HLA-A*02:06 (setting [1]), 135 nM with HLA-A*02:02 (setting [1]), 9.7 nM with HLA-A*02:03 (setting [1]) and 9870 nM in the assay with HLA-A*68:02 (setting [1]).
